According to patent US20080213836:

T1: Z-Phe-Arg-MCA
T1 chain: FR

T2: Boc-Glu(OBzl)-Ala-Arg-MCA
T2 chain: EAR

T3: Pro-Phe-Arg-MCA
T3 chain: PFR

T4: Gly-Asp-Asp-Asp-Asp-Lys-β-naphthylamide
T4 chain: GDDDDK


Key:
Z-Phe-Arg-MCA = molecular target: T1, Z-Phe-Arg-MCA
[1] = molecular target: T2, Boc-Glu(OBzl)-Ala-Arg-MCA
[2] = molecular target: recombinant fusion protein of Medaka trypsinogen
Pro-Phe-Arg-MCA = molecular target: T3, Pro-Phe-Arg-MCA
[3] = molecular target: T4, Gly-Asp-Asp-Asp-Asp-Lys-β-naphthylamide

Row | Protein | enzyme activity against wild-type (Z-Phe-Arg-MCA) | enzyme activity against wild-type [1] | conversion of trypsinogen to active enzyme [2] | enzyme activity against wild-type (Pro-Phe-Arg-MCA) | enzyme activity against wild-type [3]
1 | Medaka EP-1 serine protease domain mutant K63A (protein) VVGGVNAEKGAWPWMVSLHWRGRHGCGASLIGRDWLLTAAHCVYGANTHLQYWSAVLGLHAQSSMNSQEVQIRQVDRIIINKNYNRRTKEADIAMMHLQQPVNFTEWVLPVCLASEDQHFPAGRRCFIAGWGRDAEGGSLPDILQEAEVPLVDQDECQRLLPEYTFTSSMLCAGYPEGGVDSCQGDSGGPLMCLEDARWTLIGVTSFGVGCGRPERPGAYARVSAFTSWIAETRRSSFSDLD | The same held true for all the other mutants except for F144A | The same held true for all the other mutants except for F144A | A total of 12 mutants could convert the recombinant Medaka trypsinogen to its active enzyme (data not shown) | The same held true for all the other mutants except for F144A | The same held true for all the other mutants except for F144A
2 | Medaka EP-1 serine protease domain mutant T105A (protein) VVGGVNAEKGAWPWMVSLHWRGRHGCGASLIGRDWLLTAAHCVYGKNTHLQYWSAVLGLHAQSSMNSQEVQIRQVDRIIINKNYNRRAKEADIAMMHLQQPVNFTEWVLPVCLASEDQHFPAGRRCFIAGWGRDAEGGSLPDILQEAEVPLVDQDECQRLLPEYTFTSSMLCAGYPEGGVDSCQGDSGGPLMCLEDARWTLIGVTSFGVGCGRPERPGAYARVSAFTSWIAETRRSSFSDLD | The same held true for all the other mutants except for F144A | The same held true for all the other mutants except for F144A | A total of 12 mutants could convert the recombinant Medaka trypsinogen to its active enzyme (data not shown) | The same held true for all the other mutants except for F144A | The same held true for all the other mutants except for F144A
3 | Medaka EP-1 serine protease domain mutant T105R (protein) VVGGVNAEKGAWPWMVSLHWRGRHGCGASLIGRDWLLTAAHCVYGKNTHLQYWSAVLGLHAQSSMNSQEVQIRQVDRIIINKNYNRRRKEADIAMMHLQQPVNFTEWVLPVCLASEDQHFPAGRRCFIAGWGRDAEGGSLPDILQEAEVPLVDQDECQRLLPEYTFTSSMLCAGYPEGGVDSCQGDSGGPLMCLEDARWTLIGVTSFGVGCGRPERPGAYARVSAFTSWIAETRRSSFSDLD | The same held true for all the other mutants except for F144A | The same held true for all the other mutants except for F144A | A total of 12 mutants could convert the recombinant Medaka trypsinogen to its active enzyme (data not shown) | The same held true for all the other mutants except for F144A | The same held true for all the other mutants except for F144A
4 | Medaka EP-1 serine protease domain mutant E173K (protein) VVGGVNAEKGAWPWMVSLHWRGRHGCGASLIGRDWLLTAAHCVYGKNTHLQYWSAVLGLHAQSSMNSQEVQIRQVDRIIINKNYNRRTKEADIAMMHLQQPVNFTEWVLPVCLASEDQHFPAGRRCFIAGWGRDAEGGSLPDILQEAEVPLVDQDKCQRLLPEYTFTSSMLCAGYPEGGVDSCQGDSGGPLMCLEDARWTLIGVTSFGVGCGRPERPGAYARVSAFTSWIAETRRSSFSDLD | consistently resulted in reduced enzyme activity for synthetic peptide substrates | consistently resulted in reduced enzyme activity for synthetic peptide substrates | A total of 12 mutants could convert the recombinant Medaka trypsinogen to its active enzyme (data not shown) | consistently resulted in reduced enzyme activity for synthetic peptide substrates | consistently resulted in reduced enzyme activity for synthetic peptide substrates
5 | Medaka EP-1 serine protease domain mutant F144S (protein) VVGGVNAEKGAWPWMVSLHWRGRHGCGASLIGRDWLLTAAHCVYGKNTHLQYWSAVLGLHAQSSMNSQEVQIRQVDRIIINKNYNRRTKEADIAMMHLQQPVNFTEWVLPVCLASEDQHFPAGRRCSIAGWGRDAEGGSLPDILQEAEVPLVDQDECQRLLPEYTFTSSMLCAGYPEGGVDSCQGDSGGPLMCLEDARWTLIGVTSFGVGCGRPERPGAYARVSAFTSWIAETRRSSFSDLD | consistently resulted in reduced enzyme activity for synthetic peptide substrates | consistently resulted in reduced enzyme activity for synthetic peptide substrates | A total of 12 mutants could convert the recombinant Medaka trypsinogen to its active enzyme (data not shown) | consistently resulted in reduced enzyme activity for synthetic peptide substrates | consistently resulted in reduced enzyme activity for synthetic peptide substrates
6 | Medaka EP-1 serine protease domain mutant K63E (protein) VVGGVNAEKGAWPWMVSLHWRGRHGCGASLIGRDWLLTAAHCVYGENTHLQYWSAVLGLHAQSSMNSQEVQIRQVDRIIINKNYNRRTKEADIAMMHLQQPVNFTEWVLPVCLASEDQHFPAGRRCFIAGWGRDAEGGSLPDILQEAEVPLVDQDECQRLLPEYTFTSSMLCAGYPEGGVDSCQGDSGGPLMCLEDARWTLIGVTSFGVGCGRPERPGAYARVSAFTSWIAETRRSSFSDLD | The same held true for all the other mutants except for F144A | The same held true for all the other mutants except for F144A | A total of 12 mutants could convert the recombinant Medaka trypsinogen to its active enzyme (data not shown) | The same held true for all the other mutants except for F144A | The same held true for all the other mutants except for F144A
7 | Medaka EP-1 serine protease domain mutant F144A (protein) VVGGVNAEKGAWPWMVSLHWRGRHGCGASLIGRDWLLTAAHCVYGKNTHLQYWSAVLGLHAQSSMNSQEVQIRQVDRIIINKNYNRRTKEADIAMMHLQQPVNFTEWVLPVCLASEDQHFPAGRRCAIAGWGRDAEGGSLPDILQEAEVPLVDQDECQRLLPEYTFTSSMLCAGYPEGGVDSCQGDSGGPLMCLEDARWTLIGVTSFGVGCGRPERPGAYARVSAFTSWIAETRRSSFSDLD | hydrolyzed the GD4K-βNA as well as the three MCA-containing substrates at an elevated rate when compared with the wild-type enzyme | hydrolyzed the GD4K-βNA as well as the three MCA-containing substrates at an elevated rate when compared with the wild-type enzyme | A total of 12 mutants could convert the recombinant Medaka trypsinogen to its active enzyme (data not shown) | hydrolyzed the GD4K-βNA as well as the three MCA-containing substrates at an elevated rate when compared with the wild-type enzyme | hydrolyzed the GD4K-βNA as well as the three MCA-containing substrates at an elevated rate when compared with the wild-type enzyme
8 | Medaka EP-1 serine protease domain mutant P193A (protein) VVGGVNAEKGAWPWMVSLHWRGRHGCGASLIGRDWLLTAAHCVYGKNTHLQYWSAVLGLHAQSSMNSQEVQIRQVDRIIINKNYNRRTKEADIAMMHLQQPVNFTEWVLPVCLASEDQHFPAGRRCFIAGWGRDAEGGSLPDILQEAEVPLVDQDECQRLLPEYTFTSSMLCAGYAEGGVDSCQGDSGGPLMCLEDARWTLIGVTSFGVGCGRPERPGAYARVSAFTSWIAETRRSSFSDLD | The same held true for all the other mutants except for F144A | The same held true for all the other mutants except for F144A | A total of 12 mutants could convert the recombinant Medaka trypsinogen to its active enzyme (data not shown) | The same held true for all the other mutants except for F144A | The same held true for all the other mutants except for F144A
